Measurements as given in the supplement of paper PMC9876800.

System: peptide library, one residue held at a place counted from the S/T acceptor
Test: relative phosphorylation of the sub-library (ratio to the mean residue at this position); higher = residue favoured
Conditions: human
Summary of the method: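 Relative sub-library phosphorylation, a ratio to the mean residue at that position, was obtained by phosphorimaging and densitometry of spots on streptavidin membranes. Before capture, purified recombinant kinases were incubated for 90 min under kinase-specific conditions with 50 μM biotinylated degenerate peptide sub-libraries and 50 μM ATP spiked with γ-32P-ATP. Each sub-library fixed one residue at one position around a central Ser/Thr.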

Sequence of RPS6KA3, construct: Full length (P51812 whole entry, looked up): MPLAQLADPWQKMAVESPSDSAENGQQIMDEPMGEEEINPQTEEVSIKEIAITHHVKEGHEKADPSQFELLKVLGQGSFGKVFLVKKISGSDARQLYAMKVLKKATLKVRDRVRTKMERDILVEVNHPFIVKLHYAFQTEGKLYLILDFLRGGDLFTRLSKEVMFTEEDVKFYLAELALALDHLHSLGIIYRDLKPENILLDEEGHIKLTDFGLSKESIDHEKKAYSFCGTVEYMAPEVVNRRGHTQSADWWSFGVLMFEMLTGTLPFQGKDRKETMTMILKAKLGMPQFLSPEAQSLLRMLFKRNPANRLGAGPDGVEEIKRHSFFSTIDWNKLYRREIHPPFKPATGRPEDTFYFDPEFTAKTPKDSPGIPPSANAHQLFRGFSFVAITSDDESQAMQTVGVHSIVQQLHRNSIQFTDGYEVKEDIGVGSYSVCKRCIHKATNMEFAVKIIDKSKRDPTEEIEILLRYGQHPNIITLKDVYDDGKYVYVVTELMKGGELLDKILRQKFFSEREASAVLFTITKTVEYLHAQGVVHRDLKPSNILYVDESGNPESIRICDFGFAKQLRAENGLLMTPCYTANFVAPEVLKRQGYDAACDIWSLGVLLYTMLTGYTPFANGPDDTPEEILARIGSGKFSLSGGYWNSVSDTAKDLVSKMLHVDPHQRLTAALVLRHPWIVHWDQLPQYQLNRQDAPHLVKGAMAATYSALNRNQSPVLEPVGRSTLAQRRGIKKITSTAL
Sequence of STK25, construct: Full length (O00506 whole entry, looked up): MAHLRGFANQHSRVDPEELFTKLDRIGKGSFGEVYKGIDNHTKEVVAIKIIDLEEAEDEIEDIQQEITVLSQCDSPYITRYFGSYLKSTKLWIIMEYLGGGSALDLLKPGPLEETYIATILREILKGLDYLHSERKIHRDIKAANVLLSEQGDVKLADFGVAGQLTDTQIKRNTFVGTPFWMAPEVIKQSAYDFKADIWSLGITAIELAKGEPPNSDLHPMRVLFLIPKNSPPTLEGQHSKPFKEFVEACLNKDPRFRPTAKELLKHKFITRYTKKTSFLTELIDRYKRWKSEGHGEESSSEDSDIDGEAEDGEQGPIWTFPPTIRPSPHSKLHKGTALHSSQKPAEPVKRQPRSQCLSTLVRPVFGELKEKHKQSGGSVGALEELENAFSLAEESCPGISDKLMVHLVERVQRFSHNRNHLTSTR
Sequence of NEK8, construct: aa1-322 (Q86SG6 1-322, looked up): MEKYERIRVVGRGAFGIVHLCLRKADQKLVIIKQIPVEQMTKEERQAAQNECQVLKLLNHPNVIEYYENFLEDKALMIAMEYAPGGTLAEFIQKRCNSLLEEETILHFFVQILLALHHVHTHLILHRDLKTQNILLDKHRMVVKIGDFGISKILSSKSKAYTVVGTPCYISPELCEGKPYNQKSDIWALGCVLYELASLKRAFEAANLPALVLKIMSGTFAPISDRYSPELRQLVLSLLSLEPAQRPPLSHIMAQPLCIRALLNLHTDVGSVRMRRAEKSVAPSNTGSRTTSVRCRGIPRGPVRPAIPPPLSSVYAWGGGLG
Sequence of MYLK2, construct: Full length (Q9H1R3 whole entry, looked up): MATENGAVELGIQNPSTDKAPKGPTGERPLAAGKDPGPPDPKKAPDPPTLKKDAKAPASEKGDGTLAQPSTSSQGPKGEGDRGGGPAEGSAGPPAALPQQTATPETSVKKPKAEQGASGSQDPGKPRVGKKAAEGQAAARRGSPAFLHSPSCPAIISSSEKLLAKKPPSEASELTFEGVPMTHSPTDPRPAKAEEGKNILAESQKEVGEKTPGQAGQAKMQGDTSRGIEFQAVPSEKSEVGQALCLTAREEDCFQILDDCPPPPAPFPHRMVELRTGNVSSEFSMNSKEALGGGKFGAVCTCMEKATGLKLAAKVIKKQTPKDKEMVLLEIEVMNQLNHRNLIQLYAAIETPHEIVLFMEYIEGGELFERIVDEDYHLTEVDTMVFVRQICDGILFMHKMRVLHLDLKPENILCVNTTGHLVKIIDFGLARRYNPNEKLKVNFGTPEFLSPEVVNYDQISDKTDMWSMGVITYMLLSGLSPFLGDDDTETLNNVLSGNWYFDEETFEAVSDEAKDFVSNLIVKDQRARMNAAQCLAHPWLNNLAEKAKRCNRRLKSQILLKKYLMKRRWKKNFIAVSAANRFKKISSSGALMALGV

MYLK2, construct: Full length (from UniProt Q9H1R3)
relative phosphorylation
Conditions | at +1 | at +2 | at +3 | at +4 | at -1 | at -2 | at -3 | at -4 | at -5
A fixed | 1.17 | 0.898 | 0.72 | 1.02 | 1 | 1.55 | 0.879 | 1.34 | 1.37
D fixed | 0.541 | 0.852 | 1.08 | 1.07 | 0.654 | 0.423 | 0.467 | 0.847 | 0.683
E fixed | 0.705 | 1.5 | 0.72 | 1.38 | 0.659 | 0.454 | 0.605 | 1.03 | 0.644
F fixed | 0.621 | 1.42 | 1.62 | 0.804 | 0.486 | 0.461 | 0.464 | 0.852 | 0.932
G fixed | 1.19 | 0.696 | 1.03 | 0.936 | 0.922 | 1.37 | 1.45 | 1.46 | 1.5
H fixed | 0.988 | 1.02 | 0.825 | 0.938 | 1.49 | 1.08 | 1.02 | 0.942 | 1.1
I fixed | 0.784 | 1.28 | 1.37 | 1.36 | 0.556 | 0.471 | 0.412 | 0.639 | 0.657
K fixed | 1.5 | 0.664 | 0.482 | 0.898 | 1.89 | 1.44 | 2.17 | 1.03 | 1.19
L fixed | 0.785 | 1.15 | 2.01 | 1.17 | 0.885 | 0.461 | 0.421 | 0.702 | 0.723
M fixed | 1.27 | 1.06 | 1.13 | 0.925 | 0.891 | 0.512 | 0.474 | 0.836 | 0.739
N fixed | 0.945 | 0.783 | 0.84 | 0.736 | 1.41 | 0.819 | 0.85 | 0.894 | 0.884
P fixed | 0.323 | 0.785 | 0.8 | 1.36 | 1.37 | 1 | 1.35 | 1.53 | 1.62
Q fixed | 1.81 | 0.757 | 0.557 | 0.973 | 1.35 | 0.806 | 0.894 | 1.01 | 0.834
R fixed | 1.68 | 0.575 | 0.525 | 0.58 | 1.13 | 4.52 | 3.77 | 1.28 | 0.929
V fixed | 1.07 | 1.21 | 0.919 | 1.23 | 0.688 | 0.558 | 0.477 | 0.753 | 0.853
W fixed | 0.902 | 1.31 | 1.6 | 0.903 | 0.658 | 0.527 | 0.691 | 1.01 | 1.25
Y fixed | 0.721 | 1.04 | 0.78 | 0.715 | 0.958 | 0.529 | 0.6 | 0.843 | 1.08
pThr fixed | 1.71 | 1.59 | 0.794 | 1.43 | 0.612 | 0.958 | 0.847 | 1.05 | 1.06
pTyr fixed | 0.726 | 1.47 | 0.977 | 1.37 | 0.886 | 0.674 | 0.819 | 0.934 | 0.84

NEK8, construct: aa1-322 (from UniProt Q86SG6)
relative phosphorylation
Conditions | at +1 | at +2 | at +3 | at +4 | at -1 | at -2 | at -3 | at -4 | at -5
A fixed | 0.671 | 0.695 | 0.727 | 0.752 | 0.875 | 0.751 | 0.814 | 0.847 | 0.971
D fixed | 0.407 | 0.332 | 0.655 | 0.562 | 1.08 | 1.53 | 0.918 | 1.68 | 1.61
E fixed | 0.37 | 0.28 | 0.459 | 0.527 | 1.16 | 1.09 | 0.764 | 1.25 | 1.09
F fixed | 1.97 | 1.12 | 1.7 | 1.11 | 0.777 | 0.882 | 0.995 | 0.89 | 1.02
G fixed | 0.654 | 0.656 | 0.992 | 0.944 | 0.602 | 1.09 | 0.975 | 0.936 | 1.05
H fixed | 1 | 1.01 | 1.16 | 0.97 | 0.967 | 0.963 | 1.05 | 0.983 | 1.04
I fixed | 0.826 | 0.761 | 0.74 | 0.815 | 0.555 | 0.679 | 0.69 | 0.606 | 0.658
K fixed | 0.933 | 2.05 | 1.4 | 1.81 | 1.5 | 0.755 | 0.799 | 0.918 | 1.08
L fixed | 1.06 | 0.845 | 1.04 | 0.978 | 1.11 | 1.25 | 1.56 | 0.792 | 0.771
M fixed | 2.03 | 0.89 | 0.95 | 0.97 | 1.36 | 0.959 | 1.52 | 0.858 | 0.76
N fixed | 0.945 | 0.841 | 1.05 | 1.02 | 1.11 | 1 | 0.837 | 1.09 | 1.06
P fixed | 0.239 | 0.525 | 0.826 | 1.32 | 0.433 | 0.485 | 0.878 | 0.926 | 1.11
Q fixed | 1.33 | 0.836 | 0.861 | 1.12 | 1.34 | 0.75 | 0.924 | 0.839 | 0.935
R fixed | 1.34 | 3.13 | 1.54 | 1.54 | 1.72 | 1.59 | 1.84 | 0.966 | 0.956
V fixed | 0.7 | 0.798 | 0.628 | 0.66 | 0.63 | 0.625 | 0.465 | 0.597 | 0.712
W fixed | 1.29 | 0.948 | 1.26 | 1.03 | 0.775 | 1.33 | 1.05 | 2.01 | 1.3
Y fixed | 1.24 | 1.28 | 1.02 | 0.86 | 0.999 | 1.26 | 0.924 | 0.805 | 0.871
pThr fixed | 0.717 | 0.574 | 0.612 | 0.672 | 0.593 | 1.01 | 1.17 | 1.13 | 1.4
pTyr fixed | 0.64 | 0.439 | 0.819 | 0.583 | 1.42 | 1.66 | 1.3 | 1.05 | 1.38

RPS6KA3, construct: Full length (from UniProt P51812)
relative phosphorylation
Conditions | at +1 | at +2 | at +3 | at +4 | at -1 | at -2 | at -3 | at -4 | at -5
A fixed | 0.876 | 1.48 | 0.988 | 1.03 | 0.917 | 0.555 | 0.652 | 1.08 | 0.961
D fixed | 0.617 | 1.08 | 1.48 | 1.39 | 0.636 | 0.658 | 0.452 | 0.62 | 0.501
E fixed | 0.97 | 0.833 | 1.58 | 1.24 | 0.466 | 0.617 | 0.402 | 0.76 | 0.4
F fixed | 0.848 | 0.548 | 0.78 | 0.679 | 0.709 | 0.568 | 0.327 | 0.682 | 0.703
G fixed | 0.704 | 1.17 | 1.21 | 1.17 | 1.13 | 0.85 | 0.555 | 1.15 | 1.01
H fixed | 1.16 | 1.34 | 1.14 | 0.914 | 1.01 | 0.979 | 0.566 | 0.911 | 0.892
I fixed | 1.2 | 0.77 | 0.666 | 0.826 | 0.652 | 0.615 | 0.373 | 0.834 | 0.762
K fixed | 1.16 | 1.08 | 0.972 | 1.17 | 1.49 | 2.6 | 1.7 | 1.8 | 2.04
L fixed | 0.927 | 0.732 | 0.905 | 0.652 | 0.906 | 0.976 | 0.37 | 0.811 | 0.944
M fixed | 1.1 | 0.727 | 0.722 | 0.828 | 0.933 | 0.614 | 0.291 | 0.99 | 0.736
N fixed | 0.957 | 0.985 | 0.827 | 0.902 | 1.02 | 0.708 | 0.464 | 0.855 | 0.719
P fixed | 0.432 | 0.677 | 0.997 | 1.6 | 2.36 | 0.457 | 0.785 | 0.863 | 0.951
Q fixed | 1.22 | 0.716 | 0.808 | 0.895 | 0.935 | 0.962 | 0.641 | 1.01 | 0.836
R fixed | 1.34 | 1.59 | 1.11 | 1.26 | 1.39 | 4.29 | 8.12 | 2.46 | 3.13
V fixed | 1.45 | 1.07 | 0.839 | 0.941 | 0.752 | 0.591 | 0.393 | 0.698 | 0.852
W fixed | 0.887 | 0.858 | 0.998 | 0.738 | 0.628 | 0.361 | 0.408 | 0.725 | 0.807
Y fixed | 1.15 | 1.34 | 0.979 | 0.762 | 1.06 | 0.601 | 0.498 | 0.753 | 0.748
pThr fixed | 1.89 | 1.03 | 1.64 | 2.38 | 0.318 | 0.319 | 0.343 | 0.719 | 0.648
pTyr fixed | 1.7 | 1.14 | 2.08 | 1.47 | 0.543 | 0.3 | 0.306 | 0.448 | 0.668

STK25, construct: Full length (from UniProt O00506)
relative phosphorylation
Conditions | at +1 | at +2 | at +3 | at +4 | at -1 | at -2 | at -3 | at -4 | at -5
A fixed | 0.561 | 0.853 | 0.857 | 0.981 | 0.996 | 1.07 | 0.986 | 1 | 1.24
D fixed | 0.151 | 0.326 | 0.447 | 0.515 | 0.772 | 0.464 | 0.671 | 0.752 | 0.774
E fixed | 0.166 | 0.195 | 0.404 | 0.454 | 0.538 | 0.398 | 0.604 | 0.865 | 0.682
F fixed | 1.28 | 0.564 | 1.01 | 0.718 | 0.756 | 1.19 | 0.875 | 0.975 | 0.922
G fixed | 0.443 | 1.13 | 1.17 | 1.12 | 1.98 | 1.26 | 1.27 | 1.1 | 1.21
H fixed | 0.884 | 1.24 | 1.07 | 1.2 | 1.3 | 1.43 | 1.24 | 1.11 | 1.15
I fixed | 1.87 | 0.572 | 0.895 | 0.845 | 0.453 | 0.86 | 0.777 | 0.775 | 0.801
K fixed | 0.669 | 2.4 | 1.64 | 2.01 | 1.23 | 1.04 | 1.31 | 1.28 | 1.52
L fixed | 1.56 | 0.486 | 0.865 | 0.743 | 0.901 | 0.791 | 0.844 | 0.8 | 0.758
M fixed | 1.89 | 0.735 | 0.926 | 0.822 | 1.14 | 0.879 | 0.974 | 0.99 | 0.899
N fixed | 0.474 | 1.08 | 0.985 | 0.919 | 1.26 | 1.01 | 1.13 | 1.03 | 0.902
P fixed | 0.175 | 0.616 | 0.787 | 1.11 | 0.599 | 0.693 | 0.876 | 0.871 | 1
Q fixed | 0.683 | 0.785 | 0.819 | 0.856 | 0.795 | 0.773 | 0.865 | 0.868 | 0.846
R fixed | 0.947 | 3.75 | 2.26 | 2.19 | 1.66 | 1.25 | 1.38 | 1.3 | 1.38
V fixed | 1.59 | 0.626 | 0.829 | 0.718 | 0.462 | 0.78 | 0.711 | 0.849 | 0.848
W fixed | 2.17 | 0.772 | 0.979 | 0.943 | 0.862 | 1.33 | 1.26 | 1.25 | 1.02
Y fixed | 1.48 | 0.872 | 1.06 | 0.852 | 1.3 | 1.79 | 1.23 | 1.18 | 1.05
pThr fixed | 0.459 | 0.376 | 0.534 | 0.435 | 0.45 | 0.615 | 0.774 | 0.98 | 0.918
pTyr fixed | 0.327 | 0.223 | 0.456 | 0.372 | 0.866 | 0.691 | 0.858 | 0.837 | 0.866
